Measurements: patent US8357523B2, “Beta-glucosidase variant enzymes and related polynucleotides” (Codexis, Inc., priority 2009, dated 2013)

Experiment: High throughput cellobiose assay: fold improvement in cellobiase activity of CelA variants over a control enzyme (Tables 2A-2D, 3, 5, 6, 7)
Format: biochemical
Conditions: 3.3 g/l cellobiose, 55° C. and pH 6.0

B1: 116 (protein)
chain: STAIAQEGAAPAAILHPEKWPRPATQRLIDPAVEKRVDALLKQLSVEEKVGQVIQGDIGTITPEDLRKYPLGSILAGGDSGPNGDDRAPPKEWLDLADAFYRVSLEKRPGHTPIPVLFGIDAVHGHGKIGSATIFPHNIALGATRDPELLRRIGEVTAVEMTATGIDWTFAPALSVVRDDRWGRTYEGFSEDPEIVAAYSAAIVEGVQGKYGSKDFMAPGRIVACAKHFLADGGTDQGRDQGDARISEDELIRIHNAGYPPAIDAGVLTVMASFSSWQGIKHHGHKQLLTDVLKGQMGFNGFIVGDWNAHDQVPGCTKFNCPTSLIAGLDMYMAADSWKQLYENTLAQVKDGTIPMARLDDAVRRILRVKVLAGLFEKPAPKDRPGLPGLETLGSPEHRAVGREAVRKSLVLLKNDKGTLPLSPKARVLVAGDGADNIGKQSGGWTISWQGTGNRNDEFPGATSILGGIRDAVADAGGSVEFDVAGQYKTKPDVAIVVFGEEPYAEFQGDVETLEYQPDQKQDLALLKKLKDQGIPVVAVFLSGRPMWVNPELNASDAFVAAWLPGTEGGGVADVLFTDKAGKVQHDFAGKLSYSWPRTAAQTTVNRGDADYNPLFAYGYGLTYQDKSKVGTLPEESGVPAEARQNAGIYFRAGALRLPGRFL
Fold improvement over Control Variant No. 5 from Table 2A: +++ (+++ = 6 to 13 fold improvement over control Variant No. 2)

B2: 119 (protein)
chain: STAIAQEGAAPAAILHPEKWPRPATQRLIDPAVEKRVDALLKQLSVEEKVGQVIQGDIGTITPEDLRKYPLGSILAGGNSGPNGDDRAPPKEWLDLADAFYRVSLEKRPGHTPIPVLFGIDAVHGHGNIGSATIFPHNIALGATRDPELLRRIGEVTAQEMAATGIDWTFAPALSVVRDDRWGRTYEGFSEDPEIVAAYSPAIVEGVQGKYGSKDFMAPGRIVACAKHFLADGGTDQGRDQGDARISEDELIRIHNAGYPPAIDAGVLTVMASFSSWQGIKHHGHKQLLTDVLKGQMGFNGFIVGDWNAHDQVPGCTKFNCPTSLIAGLDMYMAADSWKQLYENTLAQVKDGTIPMARLDDAVRRILRVKVLAGLFEKPAPKDRPGLPGLETLGSPEHRAVGREAVRKSLVLLKNDKGTLPLSPKARVLVAGDGADNIGKQSGGWTISWQGTGNRNDEFPGATSILGGIRDAVADAGGSVEFDVAGQYKTKPDVAIVVFGEEPYAEFQGDVETLEYQPDQKQDLALLKKLKDQGIPVVAVFLSGRPMWVNPELNASDAFVAAWLPGTEGGGVADVLFTDKAGKVQHDFAGKLSYSWPRTAAQTTVNRGDADYNPLFAYGYGLTYKDKSKVGTLPEESGVPAEARQNAGIYFRAGALRLPGRFL
Fold improvement over Control Variant No. 5 from Table 2A: +++ (+++ = 6 to 13 fold improvement over control Variant No. 2)

B3: 118 (protein)
chain: STAIAQEGAAPAAILHPEKWPRPATQRLIDPAVEKRVDALLKQLSVEEKVGQVIQGDIGTITPEDLRKYPLGSILAGGDSGPNGDDRAPPKEWLDLADAFYRVSLEKRPGHTPIPVLFGIDAVHGHGKIGSATIFPHNIALGMTRDPELLRRIGEVTAVEMTATGIDWTFAPALSVVRDDRWGRTYEGFSEDPEIVASYSAAIVEGVQGKYGSKDFMAPGRSVACAKHFLADGGTDQGRDQGDARISEDELIRIHNAGYPPAIDAGVLTVMASFSSWQGIKHHGHKQLLTDVLKGQMGFNGFIVGDWNAHDQVPGCTKFNCPTSLIAGLDMYMAADSWKQLYENTLAQVKDGTIPMARLDDAVRRILRVKVLAGLFEKPAPKDRPGLPGLETLGSPEHRAVGREAVRKSLVLLKNDKGTLPLSPKARVLVAGDGADNIGKQSGGWTISWQGTGNRNDEFPGATSILGGIRDAVADAGGSVEFDVAGQYKTKPDVAIVVFGEEPYAEFQGDVETLEYQPDQKQDLALLKKLKDQGIPVVAVFLSGRPMWVNPELNASDAFVAAWLPGTEGGGVADVLFTDKAGKVQHDFAGKLSYSWPRTAAQTTVNRGDADYNPLFAYGYGLTYKDKSKVGTLPEESGVPAEARQNAGIYFRAGALRLPGRFL
Fold improvement over Control Variant No. 5 from Table 2A: +++ (+++ = 6 to 13 fold improvement over control Variant No. 2)
